Reference: patent publication US20250145691A1

Target: Pangolin CoV S2-37 (Pangolin CoV)

B1: Antibody SC45 Fab (Fab, V domains shown)
VH: QVQLQESGPGLVKSSETLSLTCTVSGGSISSYYWSWIRQPPGKGLEWIGCIYSSGSTNYNPSLKSRVTISVDSSKNQFSLRLNSVTAADTAVYYCARHKGTDFWSGYSFTPRGGWFDPWGQGALVSVSS
VL: DIQMTQSPSSLSASVGDRVTITCRASQSISSYLNWYQQKPGKAPKLLIYGASNLQSGVPSRFSGSGSETDFTLTISSLQPEDFASYYCQQSHSIPVTFGQGTKLEIK
koff: 0.000923 s⁻¹ | kon: 32100 M⁻¹ s⁻¹
